The series deals with the molecule itself. Briefly: crystal structure; hanging drop vapor diffusion at 4°C, 0.1 M Tris pH 8.5, 0.3 M magnesium formate dihydrate; SAD phasing with seleno-methionine protein; native data to 3.2 Å.

B1: MOM1 fragment corresponding to amino acid positions 1700 to 1814 (CMM2-containing protein fragment) (domain or fragment, Arabidopsis thaliana, UniProt Q9M658 1700-1814, looked up)
chain: HSAGVTALVPSLLNNGTEQIAVQPVPQIPFPVFNDPFLHELEKLRRESENSKKTFEEKKSILKAELERKMAEVQAEFRRKFHEVEAEHNTRTTKIEKDKNLVIMNKLLANAFLSK
notes: MORPHEUS' MOLECULE1 (MOM1), Arabidopsis thaliana, protein of 2001 amino acids, residues 1700-1814; residues 1729-1811 are ordered in the crystal; A seleno-methionine-containing form (E. coli strain 834) was used for phasing only; the 3.2 A data set is of the native protein; also called CMM2 protein fragment; CMM2 domain
Turning to B1, the stoichiometry N (commonly the number of molecules, sites or subunits per partner or assembly) stood at 2.

The values are drawn from paper PMC3276543, “Structural Basis of Transcriptional Gene Silencing Mediated by Arabidopsis MOM1” (PLoS Genetics, 2012).
